In article PMC9278865 one finds fold lower affinity than RBDwt on M27 data, which are given here for one substance.

This assay concerns the target wt ACE2_(615)-Fc (M27) (human) (UniProt Q9BYF1). Kind of assay: SPR.

Sequence of wt ACE2_(615)-Fc (M27) (human) (Q9BYF1 18-615): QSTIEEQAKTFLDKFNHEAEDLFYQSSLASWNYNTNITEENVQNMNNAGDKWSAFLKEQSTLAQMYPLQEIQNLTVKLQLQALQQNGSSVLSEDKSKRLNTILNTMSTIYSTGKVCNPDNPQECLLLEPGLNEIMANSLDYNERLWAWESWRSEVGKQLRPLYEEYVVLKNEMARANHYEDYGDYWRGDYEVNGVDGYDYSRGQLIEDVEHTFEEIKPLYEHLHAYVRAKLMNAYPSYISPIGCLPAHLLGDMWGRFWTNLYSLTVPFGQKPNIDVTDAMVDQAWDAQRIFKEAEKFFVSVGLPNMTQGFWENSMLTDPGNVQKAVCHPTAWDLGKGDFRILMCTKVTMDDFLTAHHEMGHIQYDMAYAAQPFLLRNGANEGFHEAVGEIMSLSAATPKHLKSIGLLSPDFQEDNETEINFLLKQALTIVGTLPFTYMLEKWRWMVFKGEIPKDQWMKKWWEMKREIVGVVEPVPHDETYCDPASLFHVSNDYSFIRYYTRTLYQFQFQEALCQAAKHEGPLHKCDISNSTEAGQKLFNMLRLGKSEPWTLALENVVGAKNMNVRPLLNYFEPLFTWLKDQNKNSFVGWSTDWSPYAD

Take “SARS-CoV RBD (residues 306 to 577) (domain or fragment)”: the fold lower affinity than RBDwt on M27 stood at 5 fold.
